The record followed here is the supplement of paper PMC10567573.

The labels stand for the following.
B1: TRIM55 (parent)
chain: FQASNPYLPTRGGTTMASGGRFRC
B2: LPCAT4 (parent)
chain: HDPLYGKLFSTYLRPPHTSRGTSQ
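Also: lentivirally expressed fusions sorted by FACS into six bins by GFP to DsRed ratio, PSI derived from sequencing read proportions per bin multiplied by bin number.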

Variants of B1 are the subject of the first data set. In words: protein stability index of a GFP-peptide fusion (GPS, HEK-293T) (PSI 1-6); higher = more stable. The note with it: c terminus: a fixed tail appended.
With FQASNPYLFTRGGTTMASGGRFRC, the protein stability index was found to be 1.5.
As for FQASNPYLCTRGGTTMASGGRFRC, the protein stability index turned out to be 2.04.
For the variant FQASNPYLPYRGGTTMASGGRFRC, the protein stability index stood at 1.83.
On the same count and under the same terms, with FQASNPYLPVRGGTTMASGGRFRC the figure was 2.16; with FQASNPYLPIRGGTTMASGGRFRC, 1.81; with FQASNPYLPTRGSTTMASGGRFRC, 1.75.
On the same count and under the same terms, with FQASNPYLPTRGYTTMASGGRFRC the figure was 1.51.
As to FQASNPYLPTRGTTTMASGGRFRC, the protein stability index was 1.65.
Take FQASNPYLPTRVGTTMASGGRFRC: the protein stability index is 3.34.
Still for that read-out and setting: under FQASNPYLPTRGGTTMASGGRFVC stands 1.88.
FQASNPYLPTRGGTTMASGGRFDC: the protein stability index was determined as 2.02.
Consider FQASNPYLPTRGGTTMASGGRFGC, for which the protein stability index worked out at 1.6.
As for FQASNPYLPTRGGTTMASGGRFTC, the protein stability index was 1.64.
On to FQASNPYLPTRGGTTMQSGGRFRC, for which the protein stability index is 2.02.
In the case of FQASNPYLPTRGGTTMHSGGRFRC, the protein stability index was 1.85.
The same measure, in the same setting: with FQASNPYLPTRGGTTMVSGGRFRC the figure was 3.21; with FQASNPYLPTRGGTNMASGGRFRC, 2.3; with FQASNPYLPTRGGTFMASGGRFRC, 1.57.
Take FQASNPYLPTRGGTYMASGGRFRC: the protein stability index amounted to 1.73.
As to FQASNPYLPTRGGTPMASGGRFRC, the protein stability index came to 1.52.
Consider FQASNPYLPTRGGTVMASGGRFRC, for which the protein stability index came out at 2.54.
With FQASNPYLPTRGGTAMASGGRFRC, the protein stability index was determined as 2.24.
As for NQASNPYLPTRGGTTMASGGRFRC, the protein stability index came out at 3.55.
On the same count and under the same terms, with FQASNPYLPTRGGTTMASYGRFRC the figure was 2.06; with FQASNPYLPTRGGETMASGGRFRC, 2.09; with FQASNPYLPTRGGFTMASGGRFRC, 1.5.
FQASNPYLPTRGGDTMASGGRFRC: the protein stability index came to 1.27.
Take FQASNPTLPTRGGTTMASGGRFRC: the protein stability index was 3.27.
As for FQASNPCLPTRGGTTMASGGRFRC, the protein stability index is 3.15.
As for FQASNPKLPTRGGTTMASGGRFRC, the protein stability index was 2.91.
On to FQASNPYLPTWGGTTMASGGRFRC, for which the protein stability index is 2.68.
With FQASNPYLPTTGGTTMASGGRFRC, the protein stability index is 1.65.
FQASNPYLPTDGGTTMASGGRFRC: the protein stability index was found to be 2.
Same read-out and setting: under FQAVNPYLPTRGGTTMASGGRFRC stands 2.34; under FQATNPYLPTRGGTTMASGGRFRC, 2.81.
On to FQASNPYSPTRGGTTMASGGRFRC, for which the protein stability index amounted to 2.7.
For FQASNPYLPTRGGTTMASGGRFRK, the protein stability index turned out to be 2.47.
On to FQASNPYLPTRGGTTVASGGRFRC, for which the protein stability index turned out to be 1.27.
For FQASNPYLPTRGGTTSASGGRFRC, the protein stability index turned out to be 2.67.
For FQASDPYLPTRGGTTMASGGRFRC, the protein stability index came to 2.81.
For FQASQPYLPTRGGTTMASGGRFRC, the protein stability index is 2.33.
Still for that read-out and setting: under FYASNPYLPTRGGTTMASGGRFRC stands 2.2; under FTASNPYLPTRGGTTMASGGRFRC, 1.68.
Still for that read-out and setting: under FQASNPYLPTRGGTTMADGGRFRC stands 2.09; under FQASNPYLPTRGGTTMAHGGRFRC, 1.57.
Turning to FQASNPYLPTRGGTTMATGGRFRC, the protein stability index stood at 2.23.
FQASNPYLPTRGGTTMASGSRFRC: the protein stability index was 1.34.
Take FQASNPYLPTRGGTTMASGVRFRC: the protein stability index came to 1.77.
As for FQASNPYLPTRGGTTMASGGEFRC, the protein stability index is 2.18.
In the case of FQASNPYLPTRGGTTMASGGLFRC, the protein stability index came out at 2.42.

Variants of B2 are the subject of a further data set. The description is as above. The note with it: c terminus: a fixed tail appended.
Consider HDPLYGKLFSTYLRPPHTIRGTSQ, for which the protein stability index worked out at 2.79.
On the same count and under the same terms, under HDPLYGKLFSTYLRPPHTHRGTSQ stands 2.29; under HDPLYGKLFSTYLRPPHTTRGTSQ, 2.61; under HDPLYGKLFSTYLRPPHTNRGTSQ, 3.12.
For the variant HDPLYGKLFSTYLRPPHTLRGTSQ, the protein stability index came to 2.36.
HDPLYGKLFSTYLRPPHTERGTSQ: the protein stability index is 2.44.
HDPLYGKLFSTYLRPPHTARGTSQ: the protein stability index came to 2.72.
Turning to HDPLYGKLFSTYLRPPHTRRGTSQ, the protein stability index is 2.74.
On the same count and under the same terms, with HDPLYGKLFSTYLRPPHTQRGTSQ the figure was 2.51.
HDPLYGKLFSTYLRPPHTPRGTSQ: the protein stability index amounted to 2.7.
With HDPLYGKLFSTYLRPPHTMRGTSQ, the protein stability index came out at 2.35.
Take HDPLYGKLFSTYLRPPHTKRGTSQ: the protein stability index turned out to be 2.62.
Consider HDPLYGKLFSTYLRPPHTDRGTSQ, for which the protein stability index worked out at 3.1.
Same read-out and setting: under HDPLYGKLFSTYLRPPHTVRGTSQ stands 2.55; under HDPLYGKLFSTYLRPPHTWRGTSQ, 1.95; under HDPLYGKLFSTYLRPPHTCRGTSQ, 2.91.
On the same count and under the same terms, under HDPLYGKLFSTYLRPPHTGRGTSQ stands 2.8; under HDPLYGKLFSTYLRPPHTFRGTSQ, 2.07.
Consider HDPLYGKLFSTYLRPPHTYRGTSQ, for which the protein stability index amounted to 2.38.
As to HDPLYGKLFSTYLRPPWTSRGTSQ, the protein stability index is 2.19.
On the same count and under the same terms, with HDPLYGKLFSTYLRPPSTSRGTSQ the figure was 2.31; with HDPLYGKLFSTYLRPPTTSRGTSQ, 2.82.
For the variant HDPLYGKLFSTYLRPPVTSRGTSQ, the protein stability index worked out at 2.53.
Turning to HDPLYGKLFSTYLRPPYTSRGTSQ, the protein stability index was 2.53.
As to HDPLYGKLFSTYLRPPHTSRGESQ, the protein stability index amounted to 3.04.
With HDPLYGKLFSTYLRPPHTSRGYSQ, the protein stability index was 2.13.
For the variant HDPLYGKLFSTYLRPPHTSRGQSQ, the protein stability index turned out to be 2.32.
As for HDPLYGKLFSTYLRPPHTSRGNSQ, the protein stability index is 2.8.
For HDPLYGKLFSTYLRPPHTSRGWSQ, the protein stability index turned out to be 1.98.
Turning to HDPLYGKLFSTYLRPPHTSRGGSQ, the protein stability index amounted to 2.75.
Same read-out and setting: under HDPLYGKLFSTYLRPPHTSRGPSQ stands 2.59; under HDPLYGKLFSTYLRPPHTSRGRSQ, 2.48.
Turning to HDPLYGKLFSTYLRPPHTSRGFSQ, the protein stability index amounted to 2.42.
As for HDPLYGKLFSTYLRPPHTSRGSSQ, the protein stability index stood at 2.74.
On to HDPLYGKLFSTYLRPPHTSRGMSQ, for which the protein stability index turned out to be 2.72.
Still for that read-out and setting: with HDPLYGKLFSTYLRPPHTSRGASQ the figure was 2.66.
With HDPLYGKLFSTYLRPPHTSRGDSQ, the protein stability index came to 2.6.
HDPLYGKLFSTYLRPPHTSRGVSQ: the protein stability index worked out at 2.12.
Take HDPLYGKLFSTYLRPPHTSRGISQ: the protein stability index came to 2.22.
Regarding HDPLYGKLFSTYLRPPHTSRGCSQ, the protein stability index turned out to be 2.43.
Consider HDPLYGKLFSTYLRPPHTSRGHSQ, for which the protein stability index was determined as 2.81.
On to HDPLYGKLFSTYLRPPHTSRGKSQ, for which the protein stability index turned out to be 2.61.
In the case of HDPLYGKLFSTYLRPPHTSRGLSQ, the protein stability index is 2.81.
With HDPLYGKLFSTYLRPPHTSYGTSQ, the protein stability index is 2.3.
